Sequences and labels used below:
B1: Sumo-tagged Drosophila Spd-2 SP2D (Spd-2 697-998), wild type [D. melanogaster] / itself (parent)
chain: LLPLKVTHTTLCWGSTKLRTDVRKSMQVKNTADKRLVIRLGIQGPGFQLVGTDSSTITLQAMECRSVVINFCPTVCGAAIGALSFYAPPGAHNSNQPGLEIPLYGYGGSASITINGLLKGPVGASFLTIGDVCELSAGPLSANLKFHNKGPLTAFVGISVDSTVLMKLRLSEAFEVRPSRLILPPNSERCVQILFRPNREDLKNILKKTAQVLTLANMRIFCGDEPNRQRMRSLVQRMSSRQREKLTSPMLDSIWGEFPDEQPVRNIGQLNEPPEFILDLVTVVRIIDVALTLNRDFDESSE

In this assay the parent is B1. Kind of assay: SEC-MALS. The note with it: with itself; 200 µM protein; read off a plot. (Size exclusion chromatography separates by hydrodynamic size, large species first.)
Consider chain 1 F126D, for which the screen value came out at 46 kDa.
Take chain 1 P121D: the screen value worked out at 45 kDa.
